Measured values taken from patent EP3821250B1.

Columns and labels:
[1] = biological target: anti-A2M antibody (MAB) labeled with a donor fluorophore; experiment: TR-FRET competition against acceptor-labeled A2M in whole blood, multiplex calibrators (VCAM-1 + A2M), 5 min; A2M 1000 ug/mL (FIG. 2I)
[2] = biological target: anti-A2M antibody (MAB) labeled with a donor fluorophore; experiment: TR-FRET competition against acceptor-labeled A2M in whole blood, singleplex calibrators, 30 min; A2M 0 ug/mL, reference (FIG. 2I)
[3] = biological target: anti-A2M antibody (MAB) labeled with a donor fluorophore; experiment: TR-FRET competition against acceptor-labeled A2M in whole blood, singleplex calibrators, 30 min; A2M 2000 ug/mL (FIG. 2I)
[4] = biological target: anti-A2M antibody (MAB) labeled with a donor fluorophore; experiment: TR-FRET competition against acceptor-labeled A2M in whole blood, multiplex calibrators (VCAM-1 + A2M), 30 min; A2M 2000 ug/mL (FIG. 2I)
[5] = biological target: anti-A2M antibody (MAB) labeled with a donor fluorophore; experiment: TR-FRET competition against acceptor-labeled A2M in whole blood, singleplex calibrators, 5 min; A2M 4000 ug/mL (FIG. 2I)
[6] = biological target: anti-A2M antibody (MAB) labeled with a donor fluorophore; experiment: TR-FRET competition against acceptor-labeled A2M in whole blood, multiplex calibrators, 30 min; A2M 0 ug/mL, reference (FIG. 2I)
[7] = biological target: anti-A2M antibody (MAB) labeled with a donor fluorophore; experiment: TR-FRET competition against acceptor-labeled A2M; A2M calibrator 0 ug/mL, reference; mean of 4 replicates (FIG. 2G)
[8] = biological target: anti-A2M antibody (MAB) labeled with a donor fluorophore; experiment: TR-FRET competition against acceptor-labeled A2M in whole blood, singleplex calibrators, 30 min; A2M 200 ug/mL (FIG. 2I)
[9] = biological target: anti-A2M antibody (MAB) labeled with a donor fluorophore; experiment: TR-FRET competition against acceptor-labeled A2M in whole blood, singleplex calibrators, 30 min; A2M 4000 ug/mL (FIG. 2I)
[10] = biological target: anti-A2M antibody (MAB) labeled with a donor fluorophore; experiment: TR-FRET competition against acceptor-labeled A2M in whole blood, singleplex calibrators, 5 min; A2M 500 ug/mL (FIG. 2I)
[11] = biological target: anti-A2M antibody (MAB) labeled with a donor fluorophore; experiment: TR-FRET competition against acceptor-labeled A2M in whole blood, multiplex calibrators (VCAM-1 + A2M), 30 min; A2M 200 ug/mL (FIG. 2I)
[12] = biological target: anti-A2M antibody (MAB) labeled with a donor fluorophore; experiment: TR-FRET competition against acceptor-labeled A2M in whole blood, multiplex calibrators (VCAM-1 + A2M), 30 min; A2M 1000 ug/mL (FIG. 2I)
[13] = biological target: anti-A2M antibody (MAB) labeled with a donor fluorophore; experiment: TR-FRET competition against acceptor-labeled A2M in whole blood, multiplex calibrators (VCAM-1 + A2M), 5 min; A2M 2000 ug/mL (FIG. 2I)
[14] = biological target: anti-A2M antibody (MAB) labeled with a donor fluorophore; experiment: TR-FRET competition against acceptor-labeled A2M in whole blood, multiplex calibrators (VCAM-1 + A2M), 5 min; A2M 200 ug/mL (FIG. 2I)
[15] = biological target: anti-A2M antibody (MAB) labeled with a donor fluorophore; experiment: TR-FRET competition against acceptor-labeled A2M; A2M calibrator 4000 ug/mL; mean of 4 replicates (FIG. 2G)
[16] = biological target: anti-A2M antibody (MAB) labeled with a donor fluorophore; experiment: TR-FRET competition against acceptor-labeled A2M in whole blood, singleplex calibrators, 30 min; A2M 500 ug/mL (FIG. 2I)
[17] = biological target: anti-A2M antibody (MAB) labeled with a donor fluorophore; experiment: TR-FRET competition against acceptor-labeled A2M; A2M calibrator 2000 ug/mL; mean of 4 replicates (FIG. 2G)
[18] = biological target: anti-A2M antibody (MAB) labeled with a donor fluorophore; experiment: TR-FRET competition against acceptor-labeled A2M in whole blood, singleplex calibrators, 30 min; A2M 1000 ug/mL (FIG. 2I)
[19] = biological target: anti-A2M antibody (MAB) labeled with a donor fluorophore; experiment: TR-FRET competition against acceptor-labeled A2M in whole blood, singleplex calibrators, 5 min; A2M 0 ug/mL, reference (FIG. 2I)
[20] = biological target: anti-A2M antibody (MAB) labeled with a donor fluorophore; experiment: TR-FRET competition against acceptor-labeled A2M in whole blood, multiplex calibrators (VCAM-1 + A2M), 30 min; A2M 4000 ug/mL (FIG. 2I)
[21] = biological target: anti-A2M antibody (MAB) labeled with a donor fluorophore; experiment: TR-FRET competition against acceptor-labeled A2M in whole blood, singleplex calibrators, 5 min; A2M 2000 ug/mL (FIG. 2I)
[22] = biological target: anti-A2M antibody (MAB) labeled with a donor fluorophore; experiment: TR-FRET competition against acceptor-labeled A2M; A2M calibrator 500 ug/mL; mean of 4 replicates (FIG. 2G)
[23] = biological target: anti-A2M antibody (MAB) labeled with a donor fluorophore; experiment: TR-FRET competition against acceptor-labeled A2M in whole blood, multiplex calibrators (VCAM-1 + A2M), 30 min; A2M 500 ug/mL (FIG. 2I)
[24] = biological target: anti-A2M antibody (MAB) labeled with a donor fluorophore; experiment: TR-FRET competition against acceptor-labeled A2M; A2M calibrator 200 ug/mL; mean of 4 replicates (FIG. 2G)
[25] = biological target: anti-A2M antibody (MAB) labeled with a donor fluorophore; experiment: TR-FRET competition against acceptor-labeled A2M in whole blood, multiplex calibrators, 5 min; A2M 0 ug/mL, reference (FIG. 2I)
[26] = biological target: anti-A2M antibody (MAB) labeled with a donor fluorophore; experiment: TR-FRET competition against acceptor-labeled A2M in whole blood, singleplex calibrators, 5 min; A2M 1000 ug/mL (FIG. 2I)
[27] = biological target: anti-A2M antibody (MAB) labeled with a donor fluorophore; experiment: TR-FRET competition against acceptor-labeled A2M in whole blood, singleplex calibrators, 5 min; A2M 200 ug/mL (FIG. 2I)
[28] = biological target: anti-A2M antibody (MAB) labeled with a donor fluorophore; experiment: TR-FRET competition against acceptor-labeled A2M in whole blood, multiplex calibrators (VCAM-1 + A2M), 5 min; A2M 4000 ug/mL (FIG. 2I)
[29] = biological target: anti-A2M antibody (MAB) labeled with a donor fluorophore; experiment: TR-FRET competition against acceptor-labeled A2M; A2M calibrator 1000 ug/mL; mean of 4 replicates (FIG. 2G)
[30] = biological target: anti-A2M antibody (MAB) labeled with a donor fluorophore; experiment: TR-FRET competition against acceptor-labeled A2M in whole blood, multiplex calibrators (VCAM-1 + A2M), 5 min; A2M 500 ug/mL (FIG. 2I)

FRET signal relative to zero calibrator (quantity not given) [1]: 0.58
FRET signal relative to zero calibrator (quantity not given) [2]: 1
FRET signal relative to zero calibrator (quantity not given) [3]: 0.43
FRET signal relative to zero calibrator (quantity not given) [4]: 0.45
FRET signal relative to zero calibrator (quantity not given) [5]: 0.33
FRET signal relative to zero calibrator (quantity not given) [6]: 1
F/B Mean [7]: 1
FRET signal relative to zero calibrator (quantity not given) [8]: 0.88
FRET signal relative to zero calibrator (quantity not given) [9]: 0.33
FRET signal relative to zero calibrator (quantity not given) [10]: 0.72
FRET signal relative to zero calibrator (quantity not given) [11]: 0.87
FRET signal relative to zero calibrator (quantity not given) [12]: 0.56
FRET signal relative to zero calibrator (quantity not given) [13]: 0.45
FRET signal relative to zero calibrator (quantity not given) [14]: 0.83
F/B Mean [15]: 0.393
FRET signal relative to zero calibrator (quantity not given) [16]: 0.71
F/B Mean [17]: 0.532
FRET signal relative to zero calibrator (quantity not given) [18]: 0.59
FRET signal relative to zero calibrator (quantity not given) [19]: 1
FRET signal relative to zero calibrator (quantity not given) [20]: 0.33
FRET signal relative to zero calibrator (quantity not given) [21]: 0.43
F/B Mean [22]: 0.795
FRET signal relative to zero calibrator (quantity not given) [23]: 0.74
F/B Mean [24]: 0.905
FRET signal relative to zero calibrator (quantity not given) [25]: 1
FRET signal relative to zero calibrator (quantity not given) [26]: 0.58
FRET signal relative to zero calibrator (quantity not given) [27]: 0.88
FRET signal relative to zero calibrator (quantity not given) [28]: 0.34
F/B Mean [29]: 0.666
FRET signal relative to zero calibrator (quantity not given) [30]: 0.71
Substance: A2M (alpha-2-macroglobulin), unlabeled analyte / calibrator
